Measured values taken from patent US20240392013A1, “IL1RAP ANTIBODIES AND USES THEREOF” (STELEXIS THERAPEUTICS, LLC, priority 2021, published 2024).

How the values were obtained:
[1] = system: cyIL1RAP; assay: Kinetics of IL1RAP mAbs by Octet, cynomolgus IL1RAP; format: binding
Experimental: (§1) Antibodies were diluted in kinetics buffer (0.1% BSA, 0.02% Tween-20 and 0.05% NaN3 in PBS) and loaded onto 16 channel anti-mouse IgG Fc capture sensors (AMC, Cat #2001073; Sartorius, Göttingen, Germany). Human, huIL1RAP-His (Sino Biological, lot: MB08MA1301), and monkey, cyIL1RAP-His (Lake Pharma, NY, USA; lot:16205819371) proteins were titrated starting from the highest concentration of 100 nM and followed by 50 nM and 25 nM. Purified antibodies were loaded at 5 μg/ml in kinetics buffer. The experimental parameters selected to determine the kinetic constants were Baseline for 60 s, Loading of antibody to sensor for 180 s, Association of analyte to antibody for 120 s, Dissociation for 1200 s and Regeneration in 10 mM Glycine pH 1.7 for 4×30 s.
(§2) Regeneration cycle tracking was selected for 12 cycles. Binding to human and cynomolgus IL1RAP was measured and KD (M) kinetics were calculated. Also, the disassociation rate (Kdis) (1/s) and association rate (Kon) (1/Ms) kinetics were calculated (data not shown).

[2] = system: IL1-induced NFκB activity; assay: HEK-BlueIL1β NFκB Reporter Assay; format: cell-based; details: nM range, read-out: IC50, inhibition of IL1-induced NFκB activity
Experimental: The HEK-Blue IL1β (Invivogen, Cat #hkb-il1b) cell line was used to monitor NFκB activity upon stimulation with IL1β cytokine. In this cell line the secreted embryonic alkaline phosphatase reporter gene (SEAP) is inducibly expressed under the control of IFN-β minimal promoter fused to NFκB/AP-1. Specificity to IL1β cytokine was achieved by blockage of TNF-α response. The cells were maintained in the presence of hygromycin (200 μg/ml) and zeocin (100 μg/ml).
For the functional assay, cells were plated at a density of 5×10^4 cells/well in 96-well plates. Cells were treated with each antibody at the highest concentration of 200 μg/ml followed by seven serial 1:3 dilutions and incubated for 45 minutes at 37° C./5% CO2 in humified incubator. Cells were then stimulated with IL1β ([…]) and incubated overnight at 37° C./5% CO2 in humified incubator. Every treatment was conducted in triplicates. Following, supernatants from each well were mixed with Quanti-Blue substrate (Invivogen, CA USA; Cat #rep-qb1) according to manufacturer's recommendations and secreted SEAP was measured using spectrophotometer at 650 nm.

[3] = system: IL33-induced NFκB activity; assay: HEK-BlueIL33 NFκB Reporter Assay; format: cell-based, human; details: nM range, read-out: IC50, inhibition of IL33-induced NFκB activity
From the text: HEK-Blue IL33 (Invivogen, Cat #hkb-hil33) cell line was used to monitor NFκB activity upon stimulation with IL33 cytokine. The secreted embryonic alkaline phosphatase reporter gene (SEAP) is inducible expressed under the control of IFN-β minimal promoter fused to NFκB/AP-1. HEK-BlueIL33 cells were also generated upon stable transfection with human IL1RL1 (ST2) gene. Specificity to IL33 cytokine was achieved by blockage of TNF-α and IL1 response. Cells are maintained in the presence of hygromycin (200 μg/ml), zeocin (100 μg/ml) and blasticidin (10 μg/ml).
For the functional assay, cells were plated at a density of 5×10^4 cells/well in 96-well plates. Cells were treated with each antibody at the highest concentration of 200 μg/ml followed by seven serial 1:3 dilutions and incubated for 45 minutes at 37° C./5% CO^2 in humified incubator. Cells were then stimulated with IL33 (12 μM) and incubated overnight at 37° C./5% CO2 in humified incubator. Every treatment was conducted in triplicates. Following, supernatants from each well were mixed with Quanti-Blue substrate (Invivogen, Cat #rep-qb1) according to manufacturer's recommendations and secreted SEAP was measured using spectrophotometer at 650 nm.

[4] = system: IL1-induced downstream signaling (phospho-ERK, AKT, p38, NFκB) in A6L, CAL33, 5637, A549, Colo205, HCC70 cells; assay: IL1 signaling in solid tumor cancer cells, Western blot; format: cell-based; details: antibody 20 μg/ml
Experimental: (§3) AML patient samples or cancer cells (AML, chronic myelogenous leukemia (CML), pancreatic, head and neck squamous cell carcinoma (HNSCC), bladder, non-small-cell lung carcinoma (NSCLC), colorectal and triple-negative breast cancer (TNBC)) were seeded in 6-well plates (5×10^5 cells/well) and incubated overnight at 37° C./5% CO2 in humified incubator. In experiments conducted in cancer cell lines, cells were washed 2× with PBS and serum-starved for 3 hours. Following, cells were treated with IL1RAP antibodies at concentration of 20 μg/ml and incubated for 1 h at 37° C./5% CO2 in humidified incubator. After 1 h, cells were treated with IL1β (Invivogen, cat: rcyec-hil1b), IL33 (Adipogen, cat: AG-40B-0160-C010) or IL36 cytokines (R@D, cat: 6836IL) at 100 ng/ml and incubated for 15 more minutes. Cells were harvested on ice after 1× wash with cold PBS and were centrifuged for 5 minutes at 5000 rpm at 4° C. Cells were then lysed with NP-40 buffer for 5 minutes on ice and centrifuged for 15 minutes at 15000 rpm at 4° C. Supernatants were collected and protein concentrations were determined by BCA (Thermofisher, Cat #PI23225). […] After 3× washes, ECL was applied (Thermofisher, Cat #32106) and proteins were detected after exposure to autoradioraphic films (Worldwide medical products, Cat #41101001) and protein intensity was quantitated using ImageJ software.

[5] = system: IL36-induced downstream signaling (phospho-ERK, AKT, p38, NFκB) in HPAC, CAL33, 5637 cells; assay: IL36 signaling in solid tumor cancer cells, Western blot; format: cell-based; details: IL36γ, antibody 20 μg/ml
Experimental: as §3

[6] = target: T1, hIL1RAP (Homo sapiens, UniProt Q9NPH3); assay: Kinetics of IL1RAP mAbs by Octet, human IL1RAP; format: binding; design: extracellular domain His-tagged, Cat #10121-H08H; His; purchased Sino Biological lot MB08MA1301 (catalogue number not given)
T1 sequence (Q9NPH3 21-367 limits assumed): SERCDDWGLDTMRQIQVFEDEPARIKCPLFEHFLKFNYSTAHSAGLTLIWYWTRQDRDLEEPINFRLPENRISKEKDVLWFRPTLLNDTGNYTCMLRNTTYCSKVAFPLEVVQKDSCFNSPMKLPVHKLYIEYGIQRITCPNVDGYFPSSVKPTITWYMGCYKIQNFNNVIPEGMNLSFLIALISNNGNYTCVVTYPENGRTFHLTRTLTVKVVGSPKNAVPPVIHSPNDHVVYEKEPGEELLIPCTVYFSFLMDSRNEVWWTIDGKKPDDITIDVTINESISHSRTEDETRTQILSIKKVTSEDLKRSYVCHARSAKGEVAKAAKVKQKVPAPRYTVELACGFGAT
Experimental: as §1, §2

B1: 74804_45C18A: anti-IL1RAP mAb; VH SEQ ID NO:11, VL SEQ ID NO:27, κ light chain (antibody, V domains shown)
VH: EVQLVESGGGLVKPGGSLRLACAATGFTFSNVWMSWVRQGSGKGLEWVGRIKSKADGGTIDYAAPVKGRFTISRDDSKNTLYLQMNSLKTEDTAMYYCTTGELLGFDYWGQGTLVTVSS
VL: DIVMTQSPLSLPVTPGEPASISCRSGQSLLHSNGFNCLAWYLQKPGQSPQLLIYLGSNRASGVPDRFSGSGSGTDFTLKISRVEAEDVGVYYCMQTLQTPITFGQGTRLEIK
modifications: 74804_45C18A VH; 74804_45C18A VL
**Q.** For B1, which “cyIL1RAP kdis(1/s)” value [1] is on record?
**A.** 0.000291 s⁻¹

**Q.** And the “cyIL1RAP kon(1/Ms)” value [1]?
**A.** 337500 M⁻¹ s⁻¹

**Q.** And the IC50 [2]?
**A.** 0.193 nM

**Q.** And the IC50 [3]?
**A.** 1.37 nM

**Q.** What about the “Inhibition of IL1 signaling (phosphorylation of ERK, AKT, p38 and NFκB)” value [4] of the same molecule?
**A.** inhibited IL1 signaling in solid tumor cancer cells

**Q.** What about the “Inhibition of IL36 signaling (phosphorylation of ERK, AKT, p38 and NFκB)” value [5] of the same molecule?
**A.** Inhibition of IL36 signaling in solid tumor cancer cells

**Q.** And the “hIL1RAP kdis(1/s)” value [6]?
**A.** 0.000273 s⁻¹

**Q.** And the “hIL1RAP kon(1/Ms)” value [6]?
**A.** 421500 M⁻¹ s⁻¹
